Reference: publication PMC4773433, “The Bub1–Plk1 kinase complex promotes spindle checkpoint signalling through Cdc20 phosphorylation” (Nature Communications, 2016)

Columns and labels:
His6-Cdc20^ΔN60 S92E = target: T1, His6-Cdc20^ΔN60 S92E (human, UniProt Q12834 61-499, S92E); test: pull-down; purified His6–Cdc20^ΔN60 WT or S92E immobilised on Ni-NTA beads, incubated with BubR1N and Mad2, 1 h at room temperature, five washes, immunoblotting; settings: both partners purified
T1 construct: Cdc20, human, residues 61-499 (Cdc20^ΔN60), phospho-mimicking S92E; also called Cdc20 S92E; source: Sf9, purified (Ni-NTA)
T1 sequence (Q12834 61-499 S92E): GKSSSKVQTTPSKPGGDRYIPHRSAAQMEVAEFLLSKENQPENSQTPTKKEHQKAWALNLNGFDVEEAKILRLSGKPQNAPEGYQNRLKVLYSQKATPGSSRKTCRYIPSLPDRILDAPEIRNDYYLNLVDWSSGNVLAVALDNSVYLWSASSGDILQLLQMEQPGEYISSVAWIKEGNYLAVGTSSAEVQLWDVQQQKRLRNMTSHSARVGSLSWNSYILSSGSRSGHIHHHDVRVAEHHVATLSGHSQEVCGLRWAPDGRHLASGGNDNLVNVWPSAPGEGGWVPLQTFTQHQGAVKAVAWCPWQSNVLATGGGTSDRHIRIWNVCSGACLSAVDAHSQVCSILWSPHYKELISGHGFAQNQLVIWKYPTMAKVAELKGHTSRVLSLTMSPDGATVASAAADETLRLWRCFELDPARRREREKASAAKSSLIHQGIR

His6-Cdc20^ΔN60 WT = target: T2, His6-Cdc20^ΔN60 WT (human, UniProt Q12834 61-499); test: as above; settings: both partners purified
T2 construct: Cdc20, human, residues 61-499 (Cdc20^ΔN60); also called Cdc20 WT; recombinant Cdc20; source: Sf9, purified (Ni-NTA)
T2 sequence (Q12834 61-499, stated change not applied): as the sequence (Q12834 61-499 S92E) above, with E32S counted along it

- binding result (His6-Cdc20^ΔN60 S92E): binds
- binding result (His6-Cdc20^ΔN60 WT): binds
B1: BubR1 N-terminal fragment (BubR1N; residues 1–370) (domain or fragment, human, UniProt O60566 1-370, looked up)
chain: MAAVKKEGGALSEAMSLEGDEWELSKENVQPLRQGRIMSTLQGALAQESACNNTLQQQKRAFEYEIRFYTGNDPLDVWDRYISWTEQNYPQGGKESNMSTLLERAVEALQGEKRYYSDPRFLNLWLKLGRLCNEPLDMYSYLHNQGIGVSLAQFYISWAEEYEARENFRKADAIFQEGIQQKAEPLERLQSQHRQFQARVSRQTLLALEKEEEEEVFESSVPQRSTLAELKSKGKKTARAPIIRVGGALKAPSQNRGLQNPFPQQMQNNSRITVFDENADEASTAELSKPTVQPWIAPPMPRAKENELQAGPWNTGRSLEHRPRGNTASLIAVPAVLPSFTPYVEETARQPVMTPCKIEPSINHILSTRK
notes: source: bacteria, purified (Ni-NTA, TEV digestion, Resource Q, Superdex 200)
